# Source: patent US20160272693A1 (ZEALAND PHARMA A S, published 2016)
# *1 amine or outer side, *2 acyl side, *3 side chain or, on linkers, in order; H or OH if unused. Bridges are numbered along the chain shown (N, C = ends). [ ]: non-standard residue; d: D form. The star is where a group is joined. C20 diacid = O=C(O)CCCCCCCCCCCCCCCCCCC(=O)*; γGlu = O=C(O)[C@H](CCC(=O)[*:2])N[*:1]; Hyp = O=C(O)[C@@H]1C[C@@H](O)CN1; NMeI = CC[C@H](C)[C@H](NC)C(=O)O; Aad = N[C@@H](CCCC(=O)O)C(=O)O; Orn = NCCC[C@H](N)C(=O)O; Sar = CNCC(=O)O
# T1: human amylin receptor 3 (hAMYR3), hCTR2 co-expressed with human receptor activity modifying protein 3 (hRAMP3) (human, UniProt P30988 25-474; O60896 24-148)
# T1 sequence (looked up) 1: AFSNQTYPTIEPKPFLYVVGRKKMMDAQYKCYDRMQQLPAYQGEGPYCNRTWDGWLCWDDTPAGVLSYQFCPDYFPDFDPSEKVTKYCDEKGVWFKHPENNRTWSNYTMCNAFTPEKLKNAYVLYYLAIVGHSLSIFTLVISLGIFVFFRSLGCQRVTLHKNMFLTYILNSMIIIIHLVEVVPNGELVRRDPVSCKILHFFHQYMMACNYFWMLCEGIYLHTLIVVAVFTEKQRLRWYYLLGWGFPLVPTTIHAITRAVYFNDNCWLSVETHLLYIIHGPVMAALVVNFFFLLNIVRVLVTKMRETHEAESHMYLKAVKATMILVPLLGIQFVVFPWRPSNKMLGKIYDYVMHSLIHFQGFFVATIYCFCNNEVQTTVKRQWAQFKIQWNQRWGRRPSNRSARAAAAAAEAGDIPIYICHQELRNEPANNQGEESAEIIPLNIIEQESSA
# T1 sequence (looked up) 2: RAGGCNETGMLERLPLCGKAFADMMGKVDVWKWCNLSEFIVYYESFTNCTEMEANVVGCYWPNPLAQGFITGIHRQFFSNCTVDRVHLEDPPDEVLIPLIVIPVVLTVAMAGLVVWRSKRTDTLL
# Molecular target: T1, human amylin receptor 3 (hAMYR3), hCTR2 …
# Assay: cell-based or functional assay
row,Binder,hAMYR3 EC50 (nM); cAMP induction
1,{C20 diacid}-[γGlu]RCGTATCATERLAHFLTRSSF[Sar]A[NMeI]LSSTEVGSFT[Hyp]-NH2 (disulfide 3-8; SMILES CC[C@H](C)[C@@H](C(=O)N[C@@H](CC(C)C)C(=O)N[C@@H](CO)C(=O)N[C@@H](CO)C(=O)N[C@H](C(=O)N[C@@H](CCC(=O)O)C(=O)N[C@H](C(=O)NCC(=O)N[C@@H](CO)C(=O)N[C@@H](Cc1ccccc1)C(=O)N[C@H](C(=O)N1C[C@H](O)C[C@H]1C(N)=O)[C@@H](C)O)C(C)C)[C@@H](C)O)N(C)C(=O)[C@H](C)NC(=O)CN(C)C(=O)[C@H](Cc1ccccc1)NC(=O)[C@H](CO)NC(=O)[C@H](CO)NC(=O)[C@H](CCCNC(=N)N)NC(=O)[C@@H](NC(=O)[C@H](CC(C)C)NC(=O)[C@H](Cc1ccccc1)NC(=O)[C@H](Cc1c[nH]cn1)NC(=O)[C@H](C)NC(=O)[C@H](CC(C)C)NC(=O)[C@H](CCCNC(=N)N)NC(=O)[C@H](CCC(=O)O)NC(=O)[C@@H](NC(=O)[C@H](C)NC(=O)[C@@H]1CSSC[C@H](NC(=O)[C@H](CCCNC(=N)N)NC(=O)CC[C@H](NC(=O)CCCCCCCCCCCCCCCCCCC(=O)O)C(=O)O)C(=O)NCC(=O)N[C@@H]([C@@H](C)O)C(=O)N[C@@H](C)C(=O)N[C@@H]([C@@H](C)O)C(=O)N1)[C@@H](C)O)[C@@H](C)O) [[19CD]-isoGlu-R-C( )-GTAT-C( )-ATERLAHFLTRSSF-Gly(Me)-A-Ile(Me)-LSSTEVGSFT-Hyp-NH2 (Compd. 10)],0.35 nM
2,{C20 diacid}-[γGlu]RCGTATCATERLAHFLTRSSF[Sar]A[NMeI]LSSTEVGS[Orn]T[Hyp]-NH2 (disulfide 3-8; SMILES CC[C@H](C)[C@@H](C(=O)N[C@@H](CC(C)C)C(=O)N[C@@H](CO)C(=O)N[C@@H](CO)C(=O)N[C@H](C(=O)N[C@@H](CCC(=O)O)C(=O)N[C@H](C(=O)NCC(=O)N[C@@H](CO)C(=O)N[C@@H](CCCN)C(=O)N[C@H](C(=O)N1C[C@H](O)C[C@H]1C(N)=O)[C@@H](C)O)C(C)C)[C@@H](C)O)N(C)C(=O)[C@H](C)NC(=O)CN(C)C(=O)[C@H](Cc1ccccc1)NC(=O)[C@H](CO)NC(=O)[C@H](CO)NC(=O)[C@H](CCCNC(=N)N)NC(=O)[C@@H](NC(=O)[C@H](CC(C)C)NC(=O)[C@H](Cc1ccccc1)NC(=O)[C@H](Cc1c[nH]cn1)NC(=O)[C@H](C)NC(=O)[C@H](CC(C)C)NC(=O)[C@H](CCCNC(=N)N)NC(=O)[C@H](CCC(=O)O)NC(=O)[C@@H](NC(=O)[C@H](C)NC(=O)[C@@H]1CSSC[C@H](NC(=O)[C@H](CCCNC(=N)N)NC(=O)CC[C@H](NC(=O)CCCCCCCCCCCCCCCCCCC(=O)O)C(=O)O)C(=O)NCC(=O)N[C@@H]([C@@H](C)O)C(=O)N[C@@H](C)C(=O)N[C@@H]([C@@H](C)O)C(=O)N1)[C@@H](C)O)[C@@H](C)O) [[19CD]-isoGlu-R-C( )-GTAT-C( )-ATERLAHFLTRSSF-Gly(Me)-A-Ile(Me)-LSSTEVGS-Orn-T-Hyp-NH2 (Compd. 11)],0.2 nM
3,{C20 diacid}-[γGlu]RCGTATCATERLAHFLTRSSF[Sar]A[NMeI]LSSTEVGS[Aad]T[Hyp]-NH2 (disulfide 3-8; SMILES CC[C@H](C)[C@@H](C(=O)N[C@@H](CC(C)C)C(=O)N[C@@H](CO)C(=O)N[C@@H](CO)C(=O)N[C@H](C(=O)N[C@@H](CCC(=O)O)C(=O)N[C@H](C(=O)NCC(=O)N[C@@H](CO)C(=O)N[C@@H](CCCC(=O)O)C(=O)N[C@H](C(=O)N1C[C@H](O)C[C@H]1C(N)=O)[C@@H](C)O)C(C)C)[C@@H](C)O)N(C)C(=O)[C@H](C)NC(=O)CN(C)C(=O)[C@H](Cc1ccccc1)NC(=O)[C@H](CO)NC(=O)[C@H](CO)NC(=O)[C@H](CCCNC(=N)N)NC(=O)[C@@H](NC(=O)[C@H](CC(C)C)NC(=O)[C@H](Cc1ccccc1)NC(=O)[C@H](Cc1c[nH]cn1)NC(=O)[C@H](C)NC(=O)[C@H](CC(C)C)NC(=O)[C@H](CCCNC(=N)N)NC(=O)[C@H](CCC(=O)O)NC(=O)[C@@H](NC(=O)[C@H](C)NC(=O)[C@@H]1CSSC[C@H](NC(=O)[C@H](CCCNC(=N)N)NC(=O)CC[C@H](NC(=O)CCCCCCCCCCCCCCCCCCC(=O)O)C(=O)O)C(=O)NCC(=O)N[C@@H]([C@@H](C)O)C(=O)N[C@@H](C)C(=O)N[C@@H]([C@@H](C)O)C(=O)N1)[C@@H](C)O)[C@@H](C)O) [[19CD]-isoGlu-R-C( )-GTAT-C( )-ATERLAHFLTRSSF-Gly(Me)-A-Ile(Me)-LSSTEVGS-Aad-T-Hyp-NH2 (Compd. 12)],0.25 nM
4,{C20 diacid-γGlu}-RCNTATCATQRLADFLHRSSF[Sar]A[NMeI]LSSTEVGSETP-NH2 (disulfide 2-7; SMILES CC[C@H](C)[C@@H](C(=O)N[C@@H](CC(C)C)C(=O)N[C@@H](CO)C(=O)N[C@@H](CO)C(=O)N[C@H](C(=O)N[C@@H](CCC(=O)O)C(=O)N[C@H](C(=O)NCC(=O)N[C@@H](CO)C(=O)N[C@@H](CCC(=O)O)C(=O)N[C@H](C(=O)N1CCC[C@H]1C(N)=O)[C@@H](C)O)C(C)C)[C@@H](C)O)N(C)C(=O)[C@H](C)NC(=O)CN(C)C(=O)[C@H](Cc1ccccc1)NC(=O)[C@H](CO)NC(=O)[C@H](CO)NC(=O)[C@H](CCCNC(=N)N)NC(=O)[C@H](Cc1c[nH]cn1)NC(=O)[C@H](CC(C)C)NC(=O)[C@H](Cc1ccccc1)NC(=O)[C@H](CC(=O)O)NC(=O)[C@H](C)NC(=O)[C@H](CC(C)C)NC(=O)[C@H](CCCNC(=N)N)NC(=O)[C@H](CCC(N)=O)NC(=O)[C@@H](NC(=O)[C@H](C)NC(=O)[C@@H]1CSSC[C@H](NC(=O)[C@H](CCCNC(=N)N)NC(=O)CC[C@H](NC(=O)CCCCCCCCCCCCCCCCCCC(=O)O)C(=O)O)C(=O)N[C@@H](CC(N)=O)C(=O)N[C@@H]([C@@H](C)O)C(=O)N[C@@H](C)C(=O)N[C@@H]([C@@H](C)O)C(=O)N1)[C@@H](C)O) [[19CD]-isoGlu-R-C( )-NTAT-C( )-ATQRLADFLHRSSF-Gly(Me)-A-Ile(Me)-LSSTEVGSETP-NH2 (Compd. 1)],0.23 nM
5,{C20 diacid}-[γGlu]RCGTATCATERLAHFLHRSSF[Sar]A[NMeI]LSSTEVGSNTP-NH2 (disulfide 3-8; SMILES CC[C@H](C)[C@@H](C(=O)N[C@@H](CC(C)C)C(=O)N[C@@H](CO)C(=O)N[C@@H](CO)C(=O)N[C@H](C(=O)N[C@@H](CCC(=O)O)C(=O)N[C@H](C(=O)NCC(=O)N[C@@H](CO)C(=O)N[C@@H](CC(N)=O)C(=O)N[C@H](C(=O)N1CCC[C@H]1C(N)=O)[C@@H](C)O)C(C)C)[C@@H](C)O)N(C)C(=O)[C@H](C)NC(=O)CN(C)C(=O)[C@H](Cc1ccccc1)NC(=O)[C@H](CO)NC(=O)[C@H](CO)NC(=O)[C@H](CCCNC(=N)N)NC(=O)[C@H](Cc1c[nH]cn1)NC(=O)[C@H](CC(C)C)NC(=O)[C@H](Cc1ccccc1)NC(=O)[C@H](Cc1c[nH]cn1)NC(=O)[C@H](C)NC(=O)[C@H](CC(C)C)NC(=O)[C@H](CCCNC(=N)N)NC(=O)[C@H](CCC(=O)O)NC(=O)[C@@H](NC(=O)[C@H](C)NC(=O)[C@@H]1CSSC[C@H](NC(=O)[C@H](CCCNC(=N)N)NC(=O)CC[C@H](NC(=O)CCCCCCCCCCCCCCCCCCC(=O)O)C(=O)O)C(=O)NCC(=O)N[C@@H]([C@@H](C)O)C(=O)N[C@@H](C)C(=O)N[C@@H]([C@@H](C)O)C(=O)N1)[C@@H](C)O) [[19CD]-isoGlu-R-C( )-GTAT-C( )-ATERLAHFLHRSSF-Gly(Me)-A-Ile(Me)-LSSTEVGSNTP-NH2 (Compd. 15)],0.079 nM
6,{C20 diacid-γGlu}-RCNTATCATQRLAHFLHRF[Sar]A[NMeI]LSSTEVGSETP-NH2 (disulfide 2-7; SMILES CC[C@H](C)[C@@H](C(=O)N[C@@H](CC(C)C)C(=O)N[C@@H](CO)C(=O)N[C@@H](CO)C(=O)N[C@H](C(=O)N[C@@H](CCC(=O)O)C(=O)N[C@H](C(=O)NCC(=O)N[C@@H](CO)C(=O)N[C@@H](CCC(=O)O)C(=O)N[C@H](C(=O)N1CCC[C@H]1C(N)=O)[C@@H](C)O)C(C)C)[C@@H](C)O)N(C)C(=O)[C@H](C)NC(=O)CN(C)C(=O)[C@H](Cc1ccccc1)NC(=O)[C@H](CCCNC(=N)N)NC(=O)[C@H](Cc1c[nH]cn1)NC(=O)[C@H](CC(C)C)NC(=O)[C@H](Cc1ccccc1)NC(=O)[C@H](Cc1c[nH]cn1)NC(=O)[C@H](C)NC(=O)[C@H](CC(C)C)NC(=O)[C@H](CCCNC(=N)N)NC(=O)[C@H](CCC(N)=O)NC(=O)[C@@H](NC(=O)[C@H](C)NC(=O)[C@@H]1CSSC[C@H](NC(=O)[C@H](CCCNC(=N)N)NC(=O)CC[C@H](NC(=O)CCCCCCCCCCCCCCCCCCC(=O)O)C(=O)O)C(=O)N[C@@H](CC(N)=O)C(=O)N[C@@H]([C@@H](C)O)C(=O)N[C@@H](C)C(=O)N[C@@H]([C@@H](C)O)C(=O)N1)[C@@H](C)O) [[19CD]-isoGlu-R-C( )-NTAT-C( )-ATQRLAHFLHRF-Gly(Me)-A-Ile(Me)-LSSTEVGSETP-NH2 (Compd. 14)],0.26 nM
7,{C20 diacid}-[γGlu]RCGTATCATERLAHFLTRSSF[Sar]A[NMeI]LSSTEVGSGT[Hyp]-NH2 (disulfide 3-8; SMILES CC[C@H](C)[C@@H](C(=O)N[C@@H](CC(C)C)C(=O)N[C@@H](CO)C(=O)N[C@@H](CO)C(=O)N[C@H](C(=O)N[C@@H](CCC(=O)O)C(=O)N[C@H](C(=O)NCC(=O)N[C@@H](CO)C(=O)NCC(=O)N[C@H](C(=O)N1C[C@H](O)C[C@H]1C(N)=O)[C@@H](C)O)C(C)C)[C@@H](C)O)N(C)C(=O)[C@H](C)NC(=O)CN(C)C(=O)[C@H](Cc1ccccc1)NC(=O)[C@H](CO)NC(=O)[C@H](CO)NC(=O)[C@H](CCCNC(=N)N)NC(=O)[C@@H](NC(=O)[C@H](CC(C)C)NC(=O)[C@H](Cc1ccccc1)NC(=O)[C@H](Cc1c[nH]cn1)NC(=O)[C@H](C)NC(=O)[C@H](CC(C)C)NC(=O)[C@H](CCCNC(=N)N)NC(=O)[C@H](CCC(=O)O)NC(=O)[C@@H](NC(=O)[C@H](C)NC(=O)[C@@H]1CSSC[C@H](NC(=O)[C@H](CCCNC(=N)N)NC(=O)CC[C@H](NC(=O)CCCCCCCCCCCCCCCCCCC(=O)O)C(=O)O)C(=O)NCC(=O)N[C@@H]([C@@H](C)O)C(=O)N[C@@H](C)C(=O)N[C@@H]([C@@H](C)O)C(=O)N1)[C@@H](C)O)[C@@H](C)O) [[19CD]-isoGlu-R-C( )-GTAT-C( )-ATERLAHFLTRSSF-Gly(Me)-A-Ile(Me)-LSSTEVGSGT-Hyp-NH2 (Compd. 13)],0.38 nM
